The text below walks through data of patent US20180194830A1 (COMMISSARIAT A L ENERGIE ATOMIQUE ET AUX ENERGIES …, published 2018).

This assay addresses T1, ILT4-Fc (recombinant ILT4 receptor fused to the Fc part of a human IgG, R&D Biosystems) (human, UniProt Q8N423 22-458).
T1 construct: Bought reagent (R&D); also called ILT4/LILRB2/CD85d; not shown: Fc part of a human IgG
The experiment in a line: dimer covalently coated on Bio-Plex beads, ILT4-Fc at 2 µg/ml, PE anti-human IgG, flow cytometry. On the procedure:
To test the binding to HLA-G receptors ILT2, ILT4, and KIR2DL4, 12 μg of dimers obtained according to example 2 were covalently coated on Bio-Plex-COOH polystyrene beads (Bio-Rad) according to the manufacturer's recommendations. Beads were then resuspended at a concentration of 2000 beads per 50 μl in 1× Luminex assay buffer (Interchim). Recombinant receptors fused to the Fc part of a human IgG (ILT2-Fc, ILT4-Fc, R&D Biosystems) were then added at 2 μg/ml. Beads and receptors were then incubated for 90 minutes in the dark on a shaker before wash twice with 200 μl of 1×PBS, 0.05% Tween. Beads were then resuspended in 50 μl of PBS Luminex assay Buffer containing 2 μl g/ml of Phycoerythrin-conjugated Goat anti Human IgG antibody (Sigma) for 30 minutes in the dark on a rotating shaker. Beads were then washed twice with 200 μl of 1×PBS, 0.05% Tween, and resuspended in 300 μl of 1×PBS.
Fluorescence, indicative of peptide recognition by the receptors was evaluated by flow cytometry performed on an Epics XL Cytometer (Beckman Coulter) using EXPO32 software (Beckman Coulter).
(In general: In flow cytometry, cells or beads pass a laser one at a time.)

T1 sequence (Q8N423 22-458 limits assumed): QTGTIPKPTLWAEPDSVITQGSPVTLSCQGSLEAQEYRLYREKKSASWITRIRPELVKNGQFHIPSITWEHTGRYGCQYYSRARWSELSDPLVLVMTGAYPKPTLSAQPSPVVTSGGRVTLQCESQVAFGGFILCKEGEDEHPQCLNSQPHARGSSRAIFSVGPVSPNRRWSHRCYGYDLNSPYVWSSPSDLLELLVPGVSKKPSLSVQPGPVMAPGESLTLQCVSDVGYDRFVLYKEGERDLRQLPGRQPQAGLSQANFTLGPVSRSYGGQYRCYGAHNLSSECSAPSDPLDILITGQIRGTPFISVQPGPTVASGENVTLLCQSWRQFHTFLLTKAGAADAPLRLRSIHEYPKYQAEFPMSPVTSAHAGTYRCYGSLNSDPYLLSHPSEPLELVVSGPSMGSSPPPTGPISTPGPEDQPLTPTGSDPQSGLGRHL

B1: (alpha1-alpha 3)×2 dimer of SEQ ID NO:4 (peptide)
chain: GSHSMRYFSAAVSRPGRGEPRFIAMGYVDDTQFVRFDSDSACPRMEPRAPWVEQEGPEYWEEETRNTKAHAQTDRMNLQTLRGYYNQSEADPPKTHVTHHPVFDYEATLRCWALGFYPAEIILTWQRDGEDQTQDVELVETRPAGDGTFQKWAAVVVPSGEEQRYTCHVQHEGLPEPLMLRWKQ
modifications: intrachain disulfide between cysteines 111 and 167; interchain disulfide bridge between Cysteine 42 of the two monomers
notes: Synthetic disulfide-linked homodimer; in the assay covalently coated on Bio-Plex-COOH polystyrene beads; also called (alpha 3-alpha1)×2; (alpha1-alpha 3)x2
Regarding B1, the binding result is reported as “binds”.
